Data as given in paper PMC5152705.

How the values were obtained:
[1] = biological target: recombinant fragment of human SP-A (rfhSP-A) (human); assay: SEC; gel permeation chromatography, Superdex 200 HR 10/30, TBS with 5 mM EDTA, pH 7.4; rfhSP-A purified by mannan affinity chromatography; also after freeze/thawing
[2] = biological target: recombinant fragment of human SP-A (rfhSP-A) (human); assay: SEC; gel permeation chromatography, Superdex 200 HR 10/30, TBS with 5 mM EDTA, pH 7.4; rfhSP-A after IMAC and removal of the NT tag; quaternary structure estimated by comparison with molecular weight standards

**Q.** Which results are given for “recombinant fragment of human SP-A (rfhSP-A) (domain or fragment)”?
**A.** stoichiometry N [1]: 3; percent dimeric [2]: 15%; percent monomeric [2]: 9%; percent trimeric [2]: 72%; stoichiometry N [2]: 3
